Assay results taken from the supplement of paper PMC5998384.

What was measured:
HeLa Kyoto [1] = assay: solubility in G1/S (NP-40 vs SDS abundance) (log2 ratio); higher = more soluble; details: cell cycle stage: G1/S
HeLa Kyoto [2] = assay: solubility change mitosis vs G1/S (difference of NP-40 vs SDS log2 ratios) (log2 ratio difference); higher = more soluble in mitosis
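Wherever solubility change mitosis vs G1/S (difference of NP-40 vs SDS log2 ratios) is given: synchronized HeLa Kyoto cells (double thymidine block for G1/S, nocodazole release for mitosis), protein amounts in NP-40 versus SDS lysates quantified by mass spectrometry, three biological replicates.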
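Wherever solubility in G1/S (NP-40 vs SDS abundance) is given: HeLa Kyoto cells arrested at G1/S by double thymidine block, proteins quantified by TMT10plex mass spectrometry in mild NP-40 versus SDS extracts, three biological replicates.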

Chain of MAFK (chain, as listed by the source): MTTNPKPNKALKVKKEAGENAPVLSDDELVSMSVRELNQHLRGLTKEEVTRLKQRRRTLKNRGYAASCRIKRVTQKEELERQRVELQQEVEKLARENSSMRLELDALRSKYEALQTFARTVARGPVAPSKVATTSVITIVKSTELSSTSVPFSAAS

**Q.** With “MAEIIQERIEDRLPELEQLERIGLFSHAEIKAIIKKASDLEYKIQRRTLFKEDFINYVQYEINLLELIQRRRTRIGYSFKKDEIENSIVHRVQGVFQRASAKWKDDVQLWLSYVAFCKKWATKTRLSKVFSAMLAIHSNKPALWIMAAKWEMEDRLSSESARQLFLRALRFHPECPKLYKEYFRMELMHAEKLRKEKEEFEKASMDVENPDYSEEILKGELAWIIYKNSVSIIKGAEFHVSLLSIAQLFDFAKDLQKEIYDDLQALHTDDPLTWDYVARRELEIESQTEEQPTTKQAKAVEVGRKEERCCAVYEEAVKTLPTEAMWKCYITFCLERFTKKSNSGFLRGKRLERTMTVFRKAHELKLLSECQYKQLSVSLLCYNFLREALEVAVAGTELFRDSGTMWQLKLQVLIESKSPDIAMLFEEAFVHLKPQVCLPLWISWAEWSEGAKSQEDTEAVFKKALLAVIGADSVTLKNKYLDWAYRSGGYKKARAVFKSLQESRPFSVDFFRKMIQFEKEQESCNMANIREYYERALREFGSADSDLWMDYMKEELNHPLGRPENCGQIYWRAMKMLQGESAEAFVAKHAMHQTGHL [UTP6]” as the substance, how does the “solubility in G1/S (log2)” value (HeLa Kyoto [1]) read?
**A.** Its value is -2.05.

**Q.** What about the “solubility change mitosis (log2)” value (HeLa Kyoto [2]) of the same substance?
**A.** Its value is 0.707.

**Q.** Which “solubility in G1/S (log2)” value (HeLa Kyoto [1]) does the source give for “MAELRQVPGGRETPQGELRPEVVEDEVPRSPVAEEPGGGGSSSSEAKLSPREEEELDPRIQEELEHLNQASEEINQVELQLDEARTTYRRILQESARKLNTQGSHLGSCIEKARPYYEARRLAKEAQQETQKAALRYERAVSMHNAAREMVFVAEQGVMADKNRLDPTWQEMLNHATCKVNEAEEERLRGEREHQRVTRLCQQAEARVQALQKTLRRAIGKSRPYFELKAQFSQILEEHKAKVTELEQQVAQAKTRYSVALRNLEQISEQIHARRRGGLPPHPLGPRRSSPVGAEAGPEDMEDGDSGIEGAEGAGLEEGSSLGPGPAPDTDTLSLLSLRTVASDLQKCDSVEHLRGLSDHVSLDGQELGTRSGGRRGSDGGARGGRHQRSVSL [SH3BP5L]” here?
**A.** The value was 0.128.

**Q.** What about the “solubility change mitosis (log2)” value (HeLa Kyoto [2]) of the same substance?
**A.** The value was -0.0461.

**Q.** Which results are given for “MAELYVKPGNKERGWNDPPQFSYGLQTQAGGPRRSLLTKRVAAPQDGSPRVPASETSPGPPPMGPPPPSSKAPRSPPVGSGPASGVEPTSFPVESEAVMEDVLRPLEQALEDCRGHTRKQVCDDISRRLALLQEQWAGGKLSIPVKKRMALLVQELSSHRWDAADDIHRSLMVDHVTEVSQWMVGVKRLIAEKRSLFSEEAANEEKSAATAEKNHTIPGFQQAS [SRA1]”?
**A.** solubility in G1/S (log2) (HeLa Kyoto [1]): 0.0612; solubility change mitosis (log2) (HeLa Kyoto [2]): 0.9

**Q.** What does the source list for “MAEPVQEELSVLAAIFCRPHEWEVLSRSETDGTVFRIHTKAEGFMDVDIPLELVFHLPVNYPSCLPGISINSEQLTRAQCVTVKENLLEQAESLLSEPMVHELVLWIQQNLRHILSQPETGSGSEKCTFSTSTTMDDGLWITLLHLDHMRAKTKYVKIVEKWASDLRLTGRLMFMGKIILILLQGDRNNLKEYLILQKTSKVDVDSSGKKCKEKMISVLFETKVQTEHKRFLAFEVKEYSALDELQKEFETAGLKKLFSEFVLALVK [RWDD3]”?
**A.** solubility in G1/S (log2) (HeLa Kyoto [1]): 0.101; solubility change mitosis (log2) (HeLa Kyoto [2]): -0.0953

**Q.** Which results are given for “MAFGKSHRDPYATSVGHLIEKATFAGVQTEDWGQFMHICDIINTTQDGPKDAVKALKKRISKNYNHKEIQLTLSLIDMCVQNCGPSFQSLIVKKEFVKENLVKLLNPRYNLPLDIQNRILNFIKTWSQGFPGGVDVSEVKEVYLDLVKKGVQFPPSEAEAETARQETAQISSNPPTSVPTAPALSSVIAPKNSTVTLVPEQIGKLHSELDMVKMNVRVMSAILMENTPGSENHEDIELLQKLYKTGREMQERIMDLLVVVENEDVTVELIQVNEDLNNAILGYERFTRNQQRILEQNKNQKEATNTTSEPSAPSQDLLDLSPSPRMPRATLGELNTMNNQLSGLNFSLPSSDVTNNLKPSLHPQMNLLALENTEIPPFAQRTSQNLTSSHAYDNFLEHSNSVFLQPVSLQTIAAAPSNQSLPPLPSNHPAMTKSDLQPPNYYEVMEFDPLAPAVTTEAIYEEIDAHQHKGAQNDGD [TOM1L1]”?
**A.** solubility in G1/S (log2) (HeLa Kyoto [1]): 0.297; solubility change mitosis (log2) (HeLa Kyoto [2]): -0.0535

**Q.** How did the “solubility in G1/S (log2)” value (HeLa Kyoto [1]) turn out when MAFK was run?
**A.** Its value is 0.335.

**Q.** And the “solubility change mitosis (log2)” value (HeLa Kyoto [2])?
**A.** The value was 0.364.
